# In IntAct's records for PubMed 31515488:
# B1: "Delta(3,5)-Delta(2,4)-dienoyl-CoA isomerase, mitochondrial" (Homo sapiens), Q13011 (parent)
# chain: MAAGIVASRRLRDLLTRRLTGSNYPGLSISLRLTGSSAQEEASGVALGEAPDHSYESLRVTSAQKHVLHVQLNRPNKRNAMNKVFWREMVECFNKISRDADCRAVVISGAGKMFTAGIDLMDMASDILQPKGDDVARISWYLRDIITRYQETFNVIERCPKPVIAAVHGGCIGGGVDLVTACDIRYCAQDAFFQVKEVDVGLAADVGTLQRLPKVIGNQSLVNELAFTARKMMADEALGSGLVSRVFPDKEVMLDAALALAAEISSKSPVAVQSTKVNLLYSRDHSVAESLNYVASWNMSMLQTQDLVKSVQATTENKELKTVTFSKL
# B2: UPF0462 protein C4orf33 (Homo sapiens), Q8N1A6 (parent)
# chain: MDFKIEHTWDGFPVKHEPVFIRLNPGDRGVMMDISAPFFRDPPAPLGEPGKPFNELWDYEVVEAFFLNDITEQYLEVELCPHGQHLVLLLSGRRNVWKQELPLSFRMSRGETKWEGKAYLPWSYFPPNVTKFNSFAIHGSKDKRSYEALYPVPQHELQQGQKPDFHCLEYFKSFNFNTLLGEEWKQPESDLWLIEKCDI
# B3: Isoform 1 of Acetyl-CoA acetyltransferase, cytosolic (Homo sapiens), Q9BWD1-1 (parent)
# chain: MNAGSDPVVIVSAARTIIGSFNGALAAVPVQDLGSTVIKEVLKRATVAPEDVSEVIFGHVLAAGCGQNPVRQASVGAGIPYSVPAWSCQMICGSGLKAVCLAVQSIGIGDSSIVVAGGMENMSKAPHLAYLRTGVKIGEMPLTDSILCDGLTDAFHNCHMGITAENVAKKWQVSREDQDKVAVLSQNRTENAQKAGHFDKEIVPVLVSTRKGLIEVKTDEFPRHGSNIEAMSKLKPYFLTDGTGTVTPANASGINDGAAAVVLMKKSEADKRGLTPLARIVSWSQVGVEPSIMGIGPIPAIKQAVTKAGWSLEDVDIFEINEAFAAVSAAIVKELGLNPEKVNIEGGAIALGHPLGASGCRILVTLLHTLERMGRSRGVAALCIGGGMGIAMCVQRE
# B4: Centrin-1 (Homo sapiens), Q12798 (parent)
# chain: MASGFKKPSAASTGQKRKVAPKPELTEDQKQEVREAFDLFDVDGSGTIDAKELKVAMRALGFEPRKEEMKKMISEVDREGTGKISFNDFLAVMTQKMSEKDTKEEILKAFRLFDDDETGKISFKNLKRVANELGENLTDEELQEMIDEADRDGDGEVNEEEFLRIMKKTSLY
# partner: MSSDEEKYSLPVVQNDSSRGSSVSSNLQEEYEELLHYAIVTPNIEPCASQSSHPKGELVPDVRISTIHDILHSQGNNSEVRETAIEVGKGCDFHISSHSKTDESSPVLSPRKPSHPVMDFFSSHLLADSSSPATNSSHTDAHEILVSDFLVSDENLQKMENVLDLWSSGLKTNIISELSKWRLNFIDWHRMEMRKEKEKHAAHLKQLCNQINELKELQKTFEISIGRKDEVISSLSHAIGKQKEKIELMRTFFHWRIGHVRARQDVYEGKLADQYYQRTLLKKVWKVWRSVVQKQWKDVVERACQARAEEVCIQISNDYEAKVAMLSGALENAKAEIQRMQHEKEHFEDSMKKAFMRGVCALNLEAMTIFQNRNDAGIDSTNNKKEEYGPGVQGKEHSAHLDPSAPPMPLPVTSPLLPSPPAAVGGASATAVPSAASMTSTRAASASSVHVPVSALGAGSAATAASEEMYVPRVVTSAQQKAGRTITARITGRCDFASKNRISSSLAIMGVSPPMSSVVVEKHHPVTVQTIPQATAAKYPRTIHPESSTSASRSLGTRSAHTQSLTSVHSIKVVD
# B5: Protein FAM9B (Homo sapiens), Q8IZU0 (parent)
# chain: MAAWGKKHAGKDPVRDECEERNRFTETREEDVTDEHGEREPFAETDEHTGANTKKPEDTAEDLTAKRKRMKMDKTCSKTKNKSKHALRKKQLKRQKRDYIHSLKLLNVLEEYITDEQKEEEEEEGEEEELIRIFQEQQKKWQQYRSVRRERLKEMKLLRDQFVKALEDFEDLCDRVFSDEDSELDN
# partner: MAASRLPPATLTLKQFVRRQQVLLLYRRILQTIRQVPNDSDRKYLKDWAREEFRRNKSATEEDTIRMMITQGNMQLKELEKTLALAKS
# B6: Protein transport protein (Homo sapiens), Q15437 (parent)
# chain: MATYLEFIQQNEERDGVRFSWNVWPSSRLEATRMVVPLACLLTPLKERPDLPPVQYEPVLCSRPTCKAVLNPLCQVDYRAKLWACNFCFQRNQFPPAYGGISEVNQPAELMPQFSTIEYVIQRGAQSPLIFLYVVDTCLEEDDLQALKESLQMSLSLLPPDALVGLITFGRMVQVHELSCEGISKSYVFRGTKDLTAKQIQDMLGLTKPAMPMQQARPAQPQEHPFASSRFLQPVHKIDMNLTDLLGELQRDPWPVTQGKRPLRSTGVALSIAVGLLEGTFPNTGARIMLFTGGPPTQGPGMVVGDELKIPIRSWHDIEKDNARFMKKATKHYEMLANRTAANGHCIDIYACALDQTGLLEMKCCANLTGGYMVMGDSFNTSLFKQTFQRIFTKDFNGDFRMAFGATLDVKTSRELKIAGAIGPCVSLNVKGPCVSENELGVGGTSQWKICGLDPTSTLGIYFEVVNQHNTPIPQGGRGAIQFVTHYQHSSTQRRIRVTTIARNWADVQSQLRHIEAAFDQEAAAVLMARLGVFRAESEEGPDVLRWLDRQLIRLCQKFGQYNKEDPTSFRLSDSFSLYPQFMFHLRRSPFLQVFNNSPDESSYYRHHFARQDLTQSLIMIQPILYSYSFHGPPEPVLLDSSSILADRILLMDTFFQIVIYLGETIAQWRKAGYQDMPEYENFKHLLQAPLDDAQEILQARFPMPRYINTEHGGSQARFLLSKVNPSQTHNNLYAWGQETGAPILTDDVSLQVFMDHLKKLAVSSAC
# partner: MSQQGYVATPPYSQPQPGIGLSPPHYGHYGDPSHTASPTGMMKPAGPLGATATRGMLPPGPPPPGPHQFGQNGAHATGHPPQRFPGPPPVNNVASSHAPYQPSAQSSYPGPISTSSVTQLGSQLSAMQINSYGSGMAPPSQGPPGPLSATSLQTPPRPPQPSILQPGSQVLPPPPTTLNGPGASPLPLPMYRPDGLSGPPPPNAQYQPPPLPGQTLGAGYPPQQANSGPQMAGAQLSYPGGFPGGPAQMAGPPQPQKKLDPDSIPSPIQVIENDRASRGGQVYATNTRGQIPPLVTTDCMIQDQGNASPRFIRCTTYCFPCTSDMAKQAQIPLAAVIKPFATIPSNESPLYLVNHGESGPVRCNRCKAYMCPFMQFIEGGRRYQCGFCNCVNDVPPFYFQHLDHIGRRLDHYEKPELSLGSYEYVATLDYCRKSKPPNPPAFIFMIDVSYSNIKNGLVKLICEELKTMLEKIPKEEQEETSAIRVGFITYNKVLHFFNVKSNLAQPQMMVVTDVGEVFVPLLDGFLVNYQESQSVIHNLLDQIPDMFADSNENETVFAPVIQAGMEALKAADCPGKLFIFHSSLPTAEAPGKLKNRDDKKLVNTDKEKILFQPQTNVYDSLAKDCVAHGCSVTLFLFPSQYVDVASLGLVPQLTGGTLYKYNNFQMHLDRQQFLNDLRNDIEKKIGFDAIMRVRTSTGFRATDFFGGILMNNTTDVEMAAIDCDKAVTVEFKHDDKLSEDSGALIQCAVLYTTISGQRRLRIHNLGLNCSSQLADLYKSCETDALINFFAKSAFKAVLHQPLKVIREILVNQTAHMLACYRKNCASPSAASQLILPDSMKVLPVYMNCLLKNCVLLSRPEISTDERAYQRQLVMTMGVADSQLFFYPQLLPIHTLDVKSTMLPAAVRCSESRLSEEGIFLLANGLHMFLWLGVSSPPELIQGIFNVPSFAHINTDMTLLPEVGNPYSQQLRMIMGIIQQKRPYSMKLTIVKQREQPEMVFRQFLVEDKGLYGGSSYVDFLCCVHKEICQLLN
# B7: Notch homolog 2 N-terminal-like protein A (Homo sapiens), Q7Z3S9 (parent)
# chain: MCVTYHNGTGYCKCPEGFLGEYCQHRDPCEKNRCQNGGTCVAQAMLGKATCRCASGFTGEDCQYSTSHPCFVSRPCLNGGTCHMLSRDTYECTCQVGFTGKECQWTDACLSHPCANGSTCTTVANQFSCKCLTGFTGQKCETDVNECDIPGHCQHGGTCLNLPGSYQCQCLQGFTGQYCDSLYVPCAPSPCVNGGTCRQTGDFTFECNCLPETVRRGTELWERDREVWNGKEHDEN
# partner: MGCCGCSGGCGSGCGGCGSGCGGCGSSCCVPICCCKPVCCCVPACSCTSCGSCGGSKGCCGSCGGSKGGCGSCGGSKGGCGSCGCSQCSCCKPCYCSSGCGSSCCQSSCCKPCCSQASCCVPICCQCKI
# B8: Zinc finger protein Aiolos (Homo sapiens), Q9UKT9 (parent)
# chain: MEDIQTNAELKSTQEQSVPAESAAVLNDYSLTKSHEMENVDSGEGPANEDEDIGDDSMKVKDEYSERDENVLKSEPMGNAEEPEIPYSYSREYNEYENIKLERHVVSFDSSRPTSGKMNCDVCGLSCISFNVLMVHKRSHTGERPFQCNQCGASFTQKGNLLRHIKLHTGEKPFKCHLCNYACQRRDALTGHLRTHSVEKPYKCEFCGRSYKQRSSLEEHKERCRTFLQSTDPGDTASAEARHIKAEMGSERALVLDRLASNVAKRKSSMPQKFIGEKRHCFDVNYNSSYMYEKESELIQTRMMDQAINNAISYLGAEALRPLVQTPPAPTSEMVPVISSMYPIALTRAEMSNGAPQELEKKSIHLPEKSVPSERGLSPNNSGHDSTDTDSNHEERQNHIYQQNHMVLSRARNGMPLLKEVPRSYELLKPPPICPRDSVKVINKEGEVMDVYRCDHCRVLFLDYVMFTIHMGCHGFRDPFECNMCGYRSHDRYEFSSHIARGEHRALLK
# partner: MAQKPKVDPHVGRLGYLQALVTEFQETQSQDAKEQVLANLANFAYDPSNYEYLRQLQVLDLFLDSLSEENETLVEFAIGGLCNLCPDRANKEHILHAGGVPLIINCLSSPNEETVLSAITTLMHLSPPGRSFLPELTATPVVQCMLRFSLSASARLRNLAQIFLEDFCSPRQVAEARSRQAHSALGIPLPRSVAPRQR
# B9: Coiled-coil domain-containing protein 185 (Homo sapiens), Q8N715 (parent)
# chain: MAGFSHFSQPPYRDLWEPPRPGGERESTQRLGGQRSGADSTACSRAGTPGAESEAGACWLHPHCSFTPRPRRRGCSDSLRGSRSLSDVARRPLERSRKHRPRSRRLEDAWGETGTKPRPAWQPQTQLPPQRPQPCPHYPLAQGDSPPPCPGGAGTPLSGTFRVEKAQGGDQWAVPLGRHLGRWSPSSVPSERSSVPSQKFKRHSACVCAQKRDSSDQVESLASRDSQPLASSKEMRSPHTQVLKSKLEEVVVSSQDQQIVALVLTRLKKAQRIRELQQQAAKAWEELKRSDQKVQMTLERERRLLLRQSQEQWQEKEQRKTLQSPEQRGLRRDSQRKNVPPGESRWKEQPEDQESPRQEKLEKARAQAEHRKQCQVRRLREQEKMLRNLREQHSLQLQRRLVEACRKRHLHAVEGQKKVQDTNLSSLINYQARKVLMDCQAKAEELLRQLSLEQSFQRSQEIHQGLRKERQRELREKAQKEEEQLQQARWRAGESEEQRKMRKRILVELADEKIRQARSHVHKTTRDKVQHLRELNHLREKNHHILKLKAEKEEKCHIEGIKEAIKKKEQRVQHISQGKDPNFQEFQKLPQASRREERAPPNSSLDQMVLEAQLRACQQNRGY
# partner: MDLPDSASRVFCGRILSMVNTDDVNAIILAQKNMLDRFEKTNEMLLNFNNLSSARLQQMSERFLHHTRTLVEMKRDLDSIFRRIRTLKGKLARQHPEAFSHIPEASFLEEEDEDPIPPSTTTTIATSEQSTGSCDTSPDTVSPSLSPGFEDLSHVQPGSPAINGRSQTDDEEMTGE
# Variants of: B1
# Details: with traf1_human TRAF1, Q13077
# Chain of traf1_human TRAF1, Q13077 (Q13077 whole entry): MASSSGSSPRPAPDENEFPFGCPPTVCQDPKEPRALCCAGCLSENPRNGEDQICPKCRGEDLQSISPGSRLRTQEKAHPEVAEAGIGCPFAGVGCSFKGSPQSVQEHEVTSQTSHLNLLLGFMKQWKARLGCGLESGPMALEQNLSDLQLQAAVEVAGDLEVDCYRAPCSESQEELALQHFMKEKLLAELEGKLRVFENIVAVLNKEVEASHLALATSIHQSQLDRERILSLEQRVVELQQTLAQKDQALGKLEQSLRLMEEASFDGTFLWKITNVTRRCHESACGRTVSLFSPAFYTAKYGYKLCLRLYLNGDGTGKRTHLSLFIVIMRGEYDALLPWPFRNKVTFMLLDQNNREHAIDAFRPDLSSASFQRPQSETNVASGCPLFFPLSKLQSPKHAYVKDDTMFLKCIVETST
row,Variant,effect of a mutation on the interaction
1,E41A,with no effect

# Variants of: B2
# Details: with vac14_human VAC14, Q08AM6
# Chain of vac14_human VAC14, Q08AM6 (Q08AM6 whole entry): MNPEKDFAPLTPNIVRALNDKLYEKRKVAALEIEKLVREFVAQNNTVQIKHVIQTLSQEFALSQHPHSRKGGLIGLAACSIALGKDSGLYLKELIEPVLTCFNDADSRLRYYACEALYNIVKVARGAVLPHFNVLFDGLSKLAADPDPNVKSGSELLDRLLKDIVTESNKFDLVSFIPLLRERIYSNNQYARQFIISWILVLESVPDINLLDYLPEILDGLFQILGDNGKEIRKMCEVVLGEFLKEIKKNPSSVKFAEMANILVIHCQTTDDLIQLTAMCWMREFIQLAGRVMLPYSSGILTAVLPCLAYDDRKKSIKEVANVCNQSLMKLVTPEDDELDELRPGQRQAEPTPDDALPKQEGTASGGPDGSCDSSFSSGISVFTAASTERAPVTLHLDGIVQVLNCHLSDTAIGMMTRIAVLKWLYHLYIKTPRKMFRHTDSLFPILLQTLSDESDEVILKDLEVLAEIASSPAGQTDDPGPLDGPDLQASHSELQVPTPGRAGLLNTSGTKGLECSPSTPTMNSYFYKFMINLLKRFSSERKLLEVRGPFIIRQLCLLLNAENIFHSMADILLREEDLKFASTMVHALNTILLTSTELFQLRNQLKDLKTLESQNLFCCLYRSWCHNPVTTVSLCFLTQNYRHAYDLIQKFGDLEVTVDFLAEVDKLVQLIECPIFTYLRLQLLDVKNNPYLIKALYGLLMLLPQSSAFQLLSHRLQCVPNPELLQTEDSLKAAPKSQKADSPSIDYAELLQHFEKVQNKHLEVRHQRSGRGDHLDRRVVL
row,Variant,effect of a mutation on the interaction
1,H166R,with no effect

# Variants of: B3
# Details: with lnx1_human LNX1, Q8TBB1
# Chain of lnx1_human LNX1, Q8TBB1 (Q8TBB1 whole entry): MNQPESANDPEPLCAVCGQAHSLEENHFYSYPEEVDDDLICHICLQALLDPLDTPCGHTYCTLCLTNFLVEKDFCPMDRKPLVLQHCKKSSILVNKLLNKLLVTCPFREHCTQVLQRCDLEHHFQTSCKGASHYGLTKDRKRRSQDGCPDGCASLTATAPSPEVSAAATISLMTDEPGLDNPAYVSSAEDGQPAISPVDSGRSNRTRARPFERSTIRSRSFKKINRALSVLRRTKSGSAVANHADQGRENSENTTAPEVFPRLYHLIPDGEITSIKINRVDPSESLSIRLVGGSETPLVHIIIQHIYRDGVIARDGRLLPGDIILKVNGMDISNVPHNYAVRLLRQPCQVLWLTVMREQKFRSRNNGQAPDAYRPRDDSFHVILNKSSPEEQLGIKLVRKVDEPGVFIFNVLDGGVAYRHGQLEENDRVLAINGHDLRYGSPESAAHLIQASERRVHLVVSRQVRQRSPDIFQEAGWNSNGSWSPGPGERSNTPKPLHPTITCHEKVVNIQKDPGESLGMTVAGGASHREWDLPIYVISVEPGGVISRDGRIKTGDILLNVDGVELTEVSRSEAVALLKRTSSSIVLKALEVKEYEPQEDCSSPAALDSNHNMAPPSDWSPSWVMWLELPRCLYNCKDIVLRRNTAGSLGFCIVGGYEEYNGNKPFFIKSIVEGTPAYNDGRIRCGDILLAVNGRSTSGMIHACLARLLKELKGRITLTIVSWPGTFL
row,Variant,effect of a mutation on the interaction
1,G161S,with no effect

# Variants of: B4
# Details: with poc5_human POC5, Q8NA72
row,Variant,effect of a mutation on the interaction
1,M72T,with no effect

# Variants of: B5
# Details: with lyrm2_human LYRM2, Q9NU23
row,Variant,effect of a mutation on the interaction
1,R23H,with no effect

# Variants of: B6
# Details: with sc24d_human SEC24D
row,Variant,effect of a mutation on the interaction
1,V426I,with no effect

# Variants of: B7
# Details: with kra56_human KRTAP5-6, Q6L8G9
row,Variant,effect of a mutation on the interaction
1,A115T,with no effect
2,R74Q,with no effect

# Variants of: B8
# Details: with armc7_human ARMC7, Q9H6L4
row,Variant,effect of a mutation on the interaction
1,N119D,with no effect
2,A24V,with no effect

# Variants of: B9
# Details: with kxdl1_human KXD1, Q9BQD3
row,Variant,effect of a mutation on the interaction
1,S603G,with no effect
